*1 amine or outer side, *2 acyl side, *3 side chain or, on linkers, in order; H or OH if unused. Where no end group is shown, it is not given here. Side-chain parts run from the residue outwards. [ ]: non-standard residue; d: D form. The star is where a group is joined. γGlu = O=C(O)[C@H](CCC(=O)[*:2])N[*:1]; Stearoyl = CCCCCCCCCCCCCCCCCC(=O)*; Palmitoyl = CCCCCCCCCCCCCCCC(=O)*; Aib = CC(C)(N)C(=O)O
T1: human GIP receptor (human, UniProt P48546 22-466)
T1 sequence (looked up): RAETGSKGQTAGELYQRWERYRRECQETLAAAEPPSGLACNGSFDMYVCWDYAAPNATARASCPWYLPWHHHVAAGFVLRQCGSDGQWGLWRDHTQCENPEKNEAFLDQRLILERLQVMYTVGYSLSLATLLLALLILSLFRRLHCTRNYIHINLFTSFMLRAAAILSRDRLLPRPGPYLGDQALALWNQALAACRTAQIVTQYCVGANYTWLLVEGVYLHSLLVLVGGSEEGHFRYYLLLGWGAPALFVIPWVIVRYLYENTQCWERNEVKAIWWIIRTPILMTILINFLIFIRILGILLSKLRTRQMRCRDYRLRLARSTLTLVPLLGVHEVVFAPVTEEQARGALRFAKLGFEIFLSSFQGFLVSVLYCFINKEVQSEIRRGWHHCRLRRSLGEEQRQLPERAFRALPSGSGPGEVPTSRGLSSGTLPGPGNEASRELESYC

B1: exendin-4 peptide analogue SEQ ID NO: 61 (peptide)
peptide: Y[Aib]QGTFTSDLSKQK([γGlu-Palmitoyl])DSKAAQDFIEWLKAGGPSSGAPPPS-NH2
modifications: N-terminus assumed
SMILES: CCCCCCCCCCCCCCCC(=O)N[C@@H](CCC(=O)NCCCC[C@H](NC(=O)[C@H](CCC(N)=O)NC(=O)[C@H](CCCCN)NC(=O)[C@H](CO)NC(=O)[C@H](CC(C)C)NC(=O)[C@H](CC(=O)O)NC(=O)[C@H](CO)NC(=O)[C@@H](NC(=O)[C@H](Cc1ccccc1)NC(=O)[C@@H](NC(=O)CNC(=O)[C@H](CCC(N)=O)NC(=O)C(C)(C)NC(=O)[C@@H](N)Cc1ccc(O)cc1)[C@@H](C)O)[C@@H](C)O)C(=O)N[C@@H](CC(=O)O)C(=O)N[C@@H](CO)C(=O)N[C@@H](CCCCN)C(=O)N[C@@H](C)C(=O)N[C@@H](C)C(=O)N[C@@H](CCC(N)=O)C(=O)N[C@@H](CC(=O)O)C(=O)N[C@@H](Cc1ccccc1)C(=O)N[C@H](C(=O)N[C@@H](CCC(=O)O)C(=O)N[C@@H](Cc1c[nH]c2ccccc12)C(=O)N[C@@H](CC(C)C)C(=O)N[C@@H](CCCCN)C(=O)N[C@@H](C)C(=O)NCC(=O)NCC(=O)N1CCC[C@H]1C(=O)N[C@@H](CO)C(=O)N[C@@H](CO)C(=O)NCC(=O)N[C@@H](C)C(=O)N1CCC[C@H]1C(=O)N1CCC[C@H]1C(=O)N1CCC[C@H]1C(=O)N[C@@H](CO)C(N)=O)[C@@H](C)CC)C(=O)O
B2: exendin-4 peptide analogue SEQ ID NO: 60 (peptide)
peptide: Y[Aib]QGTFTSDLSKQK([γGlu-Stearoyl])DEEAARLFIEWLKAGGPSSGAPPPS-NH2
modifications: N-terminus assumed
SMILES: CCCCCCCCCCCCCCCCCC(=O)N[C@@H](CCC(=O)NCCCC[C@H](NC(=O)[C@H](CCC(N)=O)NC(=O)[C@H](CCCCN)NC(=O)[C@H](CO)NC(=O)[C@H](CC(C)C)NC(=O)[C@H](CC(=O)O)NC(=O)[C@H](CO)NC(=O)[C@@H](NC(=O)[C@H](Cc1ccccc1)NC(=O)[C@@H](NC(=O)CNC(=O)[C@H](CCC(N)=O)NC(=O)C(C)(C)NC(=O)[C@@H](N)Cc1ccc(O)cc1)[C@@H](C)O)[C@@H](C)O)C(=O)N[C@@H](CC(=O)O)C(=O)N[C@@H](CCC(=O)O)C(=O)N[C@@H](CCC(=O)O)C(=O)N[C@@H](C)C(=O)N[C@@H](C)C(=O)N[C@@H](CCCNC(=N)N)C(=O)N[C@@H](CC(C)C)C(=O)N[C@@H](Cc1ccccc1)C(=O)N[C@H](C(=O)N[C@@H](CCC(=O)O)C(=O)N[C@@H](Cc1c[nH]c2ccccc12)C(=O)N[C@@H](CC(C)C)C(=O)N[C@@H](CCCCN)C(=O)N[C@@H](C)C(=O)NCC(=O)NCC(=O)N1CCC[C@H]1C(=O)N[C@@H](CO)C(=O)N[C@@H](CO)C(=O)NCC(=O)N[C@@H](C)C(=O)N1CCC[C@H]1C(=O)N1CCC[C@H]1C(=O)N1CCC[C@H]1C(=O)N[C@@H](CO)C(N)=O)[C@@H](C)CC)C(=O)O
B3: exendin-4 peptide analogue SEQ ID NO: 59 (peptide)
peptide: Y[Aib]EGTFTSDLSIQK([γGlu-Palmitoyl])EKRAAHEFIEWLKNTGPSSGAPPPS-NH2
modifications: N-terminus assumed
SMILES: CCCCCCCCCCCCCCCC(=O)N[C@@H](CCC(=O)NCCCC[C@H](NC(=O)[C@H](CCC(N)=O)NC(=O)[C@@H](NC(=O)[C@H](CO)NC(=O)[C@H](CC(C)C)NC(=O)[C@H](CC(=O)O)NC(=O)[C@H](CO)NC(=O)[C@@H](NC(=O)[C@H](Cc1ccccc1)NC(=O)[C@@H](NC(=O)CNC(=O)[C@H](CCC(=O)O)NC(=O)C(C)(C)NC(=O)[C@@H](N)Cc1ccc(O)cc1)[C@@H](C)O)[C@@H](C)O)[C@@H](C)CC)C(=O)N[C@@H](CCC(=O)O)C(=O)N[C@@H](CCCCN)C(=O)N[C@@H](CCCNC(=N)N)C(=O)N[C@@H](C)C(=O)N[C@@H](C)C(=O)N[C@@H](Cc1c[nH]cn1)C(=O)N[C@@H](CCC(=O)O)C(=O)N[C@@H](Cc1ccccc1)C(=O)N[C@H](C(=O)N[C@@H](CCC(=O)O)C(=O)N[C@@H](Cc1c[nH]c2ccccc12)C(=O)N[C@@H](CC(C)C)C(=O)N[C@@H](CCCCN)C(=O)N[C@@H](CC(N)=O)C(=O)N[C@H](C(=O)NCC(=O)N1CCC[C@H]1C(=O)N[C@@H](CO)C(=O)N[C@@H](CO)C(=O)NCC(=O)N[C@@H](C)C(=O)N1CCC[C@H]1C(=O)N1CCC[C@H]1C(=O)N1CCC[C@H]1C(=O)N[C@@H](CO)C(N)=O)[C@@H](C)O)[C@@H](C)CC)C(=O)O
B4: exendin-4 peptide analogue SEQ ID NO: 57 (peptide)
peptide: Y[Aib]EGTFTSDLSIQK([γGlu-Palmitoyl])EERAAHEFIEWLKR[Aib]GPSSGAPPPSK-NH2
modifications: N-terminus assumed
SMILES: CCCCCCCCCCCCCCCC(=O)N[C@@H](CCC(=O)NCCCC[C@H](NC(=O)[C@H](CCC(N)=O)NC(=O)[C@@H](NC(=O)[C@H](CO)NC(=O)[C@H](CC(C)C)NC(=O)[C@H](CC(=O)O)NC(=O)[C@H](CO)NC(=O)[C@@H](NC(=O)[C@H](Cc1ccccc1)NC(=O)[C@@H](NC(=O)CNC(=O)[C@H](CCC(=O)O)NC(=O)C(C)(C)NC(=O)[C@@H](N)Cc1ccc(O)cc1)[C@@H](C)O)[C@@H](C)O)[C@@H](C)CC)C(=O)N[C@@H](CCC(=O)O)C(=O)N[C@@H](CCC(=O)O)C(=O)N[C@@H](CCCNC(=N)N)C(=O)N[C@@H](C)C(=O)N[C@@H](C)C(=O)N[C@@H](Cc1c[nH]cn1)C(=O)N[C@@H](CCC(=O)O)C(=O)N[C@@H](Cc1ccccc1)C(=O)N[C@H](C(=O)N[C@@H](CCC(=O)O)C(=O)N[C@@H](Cc1c[nH]c2ccccc12)C(=O)N[C@@H](CC(C)C)C(=O)N[C@@H](CCCCN)C(=O)N[C@@H](CCCNC(=N)N)C(=O)NC(C)(C)C(=O)NCC(=O)N1CCC[C@H]1C(=O)N[C@@H](CO)C(=O)N[C@@H](CO)C(=O)NCC(=O)N[C@@H](C)C(=O)N1CCC[C@H]1C(=O)N1CCC[C@H]1C(=O)N1CCC[C@H]1C(=O)N[C@@H](CO)C(=O)N[C@@H](CCCCN)C(N)=O)[C@@H](C)CC)C(=O)O
B5: exendin-4 peptide analogue SEQ ID NO: 58 (peptide)
peptide: Y[Aib]EGTFTSDLSIQK([γGlu-Stearoyl])ESKAAHEFIEWLKAGGPSSGAPPPSK-NH2
modifications: N-terminus assumed
SMILES: CCCCCCCCCCCCCCCCCC(=O)N[C@@H](CCC(=O)NCCCC[C@H](NC(=O)[C@H](CCC(N)=O)NC(=O)[C@@H](NC(=O)[C@H](CO)NC(=O)[C@H](CC(C)C)NC(=O)[C@H](CC(=O)O)NC(=O)[C@H](CO)NC(=O)[C@@H](NC(=O)[C@H](Cc1ccccc1)NC(=O)[C@@H](NC(=O)CNC(=O)[C@H](CCC(=O)O)NC(=O)C(C)(C)NC(=O)[C@@H](N)Cc1ccc(O)cc1)[C@@H](C)O)[C@@H](C)O)[C@@H](C)CC)C(=O)N[C@@H](CCC(=O)O)C(=O)N[C@@H](CO)C(=O)N[C@@H](CCCCN)C(=O)N[C@@H](C)C(=O)N[C@@H](C)C(=O)N[C@@H](Cc1c[nH]cn1)C(=O)N[C@@H](CCC(=O)O)C(=O)N[C@@H](Cc1ccccc1)C(=O)N[C@H](C(=O)N[C@@H](CCC(=O)O)C(=O)N[C@@H](Cc1c[nH]c2ccccc12)C(=O)N[C@@H](CC(C)C)C(=O)N[C@@H](CCCCN)C(=O)N[C@@H](C)C(=O)NCC(=O)NCC(=O)N1CCC[C@H]1C(=O)N[C@@H](CO)C(=O)N[C@@H](CO)C(=O)NCC(=O)N[C@@H](C)C(=O)N1CCC[C@H]1C(=O)N1CCC[C@H]1C(=O)N1CCC[C@H]1C(=O)N[C@@H](CO)C(=O)N[C@@H](CCCCN)C(N)=O)[C@@H](C)CC)C(=O)O
B6: exendin-4 peptide analogue SEQ ID NO: 11 (peptide)
peptide: Y[Aib]QGTFTSDLSIQK([γGlu-Palmitoyl])EKR[Aib]A[Aib]EFIEWLKNTGPSSGAPPPS-NH2
modifications: N-terminus assumed
SMILES: CCCCCCCCCCCCCCCC(=O)N[C@@H](CCC(=O)NCCCC[C@H](NC(=O)[C@H](CCC(N)=O)NC(=O)[C@@H](NC(=O)[C@H](CO)NC(=O)[C@H](CC(C)C)NC(=O)[C@H](CC(=O)O)NC(=O)[C@H](CO)NC(=O)[C@@H](NC(=O)[C@H](Cc1ccccc1)NC(=O)[C@@H](NC(=O)CNC(=O)[C@H](CCC(N)=O)NC(=O)C(C)(C)NC(=O)[C@@H](N)Cc1ccc(O)cc1)[C@@H](C)O)[C@@H](C)O)[C@@H](C)CC)C(=O)N[C@@H](CCC(=O)O)C(=O)N[C@@H](CCCCN)C(=O)N[C@@H](CCCNC(=N)N)C(=O)NC(C)(C)C(=O)N[C@@H](C)C(=O)NC(C)(C)C(=O)N[C@@H](CCC(=O)O)C(=O)N[C@@H](Cc1ccccc1)C(=O)N[C@H](C(=O)N[C@@H](CCC(=O)O)C(=O)N[C@@H](Cc1c[nH]c2ccccc12)C(=O)N[C@@H](CC(C)C)C(=O)N[C@@H](CCCCN)C(=O)N[C@@H](CC(N)=O)C(=O)N[C@H](C(=O)NCC(=O)N1CCC[C@H]1C(=O)N[C@@H](CO)C(=O)N[C@@H](CO)C(=O)NCC(=O)N[C@@H](C)C(=O)N1CCC[C@H]1C(=O)N1CCC[C@H]1C(=O)N1CCC[C@H]1C(=O)N[C@@H](CO)C(N)=O)[C@@H](C)O)[C@@H](C)CC)C(=O)O

target: human glucagon receptor (human, UniProt P47871 26-477); test: cell-based or functional assay
Sequence (P47871 26-477): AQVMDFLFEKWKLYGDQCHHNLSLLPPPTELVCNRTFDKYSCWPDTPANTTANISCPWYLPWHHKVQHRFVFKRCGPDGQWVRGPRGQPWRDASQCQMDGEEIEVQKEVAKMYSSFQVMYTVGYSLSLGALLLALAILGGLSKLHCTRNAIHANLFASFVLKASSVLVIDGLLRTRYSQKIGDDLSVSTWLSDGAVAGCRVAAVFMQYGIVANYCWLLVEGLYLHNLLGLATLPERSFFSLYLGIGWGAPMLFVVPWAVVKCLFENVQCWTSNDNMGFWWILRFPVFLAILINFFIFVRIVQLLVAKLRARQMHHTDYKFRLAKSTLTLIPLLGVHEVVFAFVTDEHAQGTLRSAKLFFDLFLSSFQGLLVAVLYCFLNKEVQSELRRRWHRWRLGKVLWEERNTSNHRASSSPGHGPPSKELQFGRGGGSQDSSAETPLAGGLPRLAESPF

In order of rising “EC50 hGLUC R” value:
1. B1  0.0061 nM
2. B2  0.0091 nM
3. B6  0.0669 nM
4. B3  12.3 nM
5. B4  14.4 nM
6. B5  16 nM

target: T1, human GIP receptor; test: cell-based or functional assay

In order of rising “EC50 hGIP R” value:
1. B5  0.0086 nM
2. B6  0.0144 nM
3. B4  0.0157 nM
4. B2  0.0168 nM
5. B3  0.0175 nM
6. B1  0.0214 nM

target: human GLP-1 receptor (human, UniProt P43220 24-463); test: cell-based or functional assay

In order of rising “EC50 hGLP-1 R” value:
1. B1  0.0024 nM
2. B6  0.0038 nM
3. B2  0.0053 nM
4. B4  0.0071 nM
5. B3  0.0075 nM
6. B5  0.0125 nM
